Measured values as given in patent publication US20250171534A1 (D2M BIOTHERAPEUTICS, published 2025).
Where a chain is given by its changes, count along the chain named. Read-outs that look alike come from different tables or passages of the source.

What was measured:
[1] = target: T1, human LILRB2 expressed on cells (human, UniProt Q8N423 22-597); assay: flow cytometry, CHO-LILRB2 cells
T1 construct: In 293T cells it was expressed from pCMV3-LILRB2-GFP; also called CHO-LILRB2; Jurkat-LILRB2

[2] = target: T2, LILRB1-ECD-HIS (SinoBiological Cat #: 16014-H02H) (human, UniProt Q8NHL6 24-461); assay: SPR (Carterra LSA), antibody captured, antigen injected;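 further: kd obtained from kinetic analysis of antibody binding to the antigen, with association and dissociation phases fitted in the instrument software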
T2 construct: Bought protein; also called monomeric antigen LILRB1-ECD-HIS; not shown: His tag
T2 sequence (Q8NHL6 other isoform, or with tags, fused parts or gaps H02H H02H): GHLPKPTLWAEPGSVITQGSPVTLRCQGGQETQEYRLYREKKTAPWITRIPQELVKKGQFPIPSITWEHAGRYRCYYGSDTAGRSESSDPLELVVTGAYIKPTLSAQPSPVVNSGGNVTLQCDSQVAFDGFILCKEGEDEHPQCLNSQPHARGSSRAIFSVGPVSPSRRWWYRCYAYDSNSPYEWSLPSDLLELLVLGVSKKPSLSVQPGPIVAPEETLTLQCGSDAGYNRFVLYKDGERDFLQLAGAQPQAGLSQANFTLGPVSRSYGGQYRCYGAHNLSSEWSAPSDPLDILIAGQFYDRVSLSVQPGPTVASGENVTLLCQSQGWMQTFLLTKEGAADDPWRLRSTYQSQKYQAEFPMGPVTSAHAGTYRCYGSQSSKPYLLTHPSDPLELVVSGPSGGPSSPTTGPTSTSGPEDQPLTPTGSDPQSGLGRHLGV

[3] = target: T3, LILRB2-ECD-HIS (SinoBiological Cat #: 14132-H02H) (human, UniProt Q8N423 22-460); assay: as above
T3 construct: Bought protein; also called monomeric antigen LILRB2-ECD-HIS; not shown: His tag
T3 sequence (Q8N423 other isoform, or with tags, fused parts or gaps H02H H02H): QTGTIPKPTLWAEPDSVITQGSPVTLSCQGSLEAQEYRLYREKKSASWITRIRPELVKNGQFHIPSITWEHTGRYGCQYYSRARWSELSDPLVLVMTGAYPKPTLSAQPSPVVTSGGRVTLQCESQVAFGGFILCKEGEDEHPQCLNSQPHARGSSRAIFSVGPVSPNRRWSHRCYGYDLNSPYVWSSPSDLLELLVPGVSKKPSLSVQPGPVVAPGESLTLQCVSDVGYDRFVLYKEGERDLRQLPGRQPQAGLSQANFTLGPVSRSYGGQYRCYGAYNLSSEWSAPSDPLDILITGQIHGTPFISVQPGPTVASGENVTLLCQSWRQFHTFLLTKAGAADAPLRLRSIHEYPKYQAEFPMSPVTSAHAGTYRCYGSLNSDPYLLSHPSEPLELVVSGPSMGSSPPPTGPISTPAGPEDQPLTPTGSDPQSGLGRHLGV

[4] = target: T4, human LILRB1 expressed on cells (human, UniProt Q8NHL6 24-650); assay: flow cytometry, CHO-LILRB1 cells
T4 construct: In 293T cells it was expressed from pCMV3-LILRB1-GFP; also called CHO-LILRB1; Jurkat-LILRB1
T4 sequence (Q8NHL6 other isoform, or with tags, fused parts or gaps limits assumed): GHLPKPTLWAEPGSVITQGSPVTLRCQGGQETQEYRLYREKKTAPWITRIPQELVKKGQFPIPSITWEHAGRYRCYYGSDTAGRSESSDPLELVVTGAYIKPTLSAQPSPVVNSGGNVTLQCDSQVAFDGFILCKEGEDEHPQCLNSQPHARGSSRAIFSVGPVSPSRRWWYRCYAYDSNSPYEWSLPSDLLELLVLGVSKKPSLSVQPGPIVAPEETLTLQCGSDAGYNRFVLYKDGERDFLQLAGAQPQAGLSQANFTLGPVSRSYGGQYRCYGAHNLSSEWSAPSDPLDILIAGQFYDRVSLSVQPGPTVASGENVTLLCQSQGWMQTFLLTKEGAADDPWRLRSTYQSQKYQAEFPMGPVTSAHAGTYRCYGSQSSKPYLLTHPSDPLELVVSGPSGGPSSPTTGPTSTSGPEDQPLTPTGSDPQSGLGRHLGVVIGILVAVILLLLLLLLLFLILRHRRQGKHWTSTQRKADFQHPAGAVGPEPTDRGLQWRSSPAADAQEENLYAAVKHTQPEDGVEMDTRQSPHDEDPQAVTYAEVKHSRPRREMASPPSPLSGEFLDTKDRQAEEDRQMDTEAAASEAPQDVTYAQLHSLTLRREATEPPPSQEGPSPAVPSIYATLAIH

[5] = target: T1, human LILRB2 expressed on cells; assay: flow cytometry, CHO-LILRB2 cells; remark: listed apart in the source
[6] = target: T1, human LILRB2 expressed on cells; assay: flow cytometry, Jurkat-LILRB2 cells; blocked ligand: APC HLA-G monomer tetramer
[7] = target: T4, human LILRB1 expressed on cells; assay: flow cytometry, Jurkat-LILRB1 cells; blocked ligand: APC HLA-G trimer tetramer
[8] = target: T1, human LILRB2 expressed on cells; assay: flow cytometry, Jurkat-LILRB2 cells
[9] = target: T2, LILRB1-ECD-HIS (SinoBiological Cat #: …); assay: SPR (Carterra), LILRB1-ECD-his
[10] = target: T2, LILRB1-ECD-HIS (SinoBiological Cat #: …); assay: BLI (Gator), RB1-ECD-his
[11] = target: T4, human LILRB1 expressed on cells; assay: flow cytometry, Jurkat-LILRB1 cells
[12] = target: T4, human LILRB1 expressed on cells; assay: flow cytometry, Jurkat-LILRB1 cells; remark: listed apart in the source
[13] = target: T1, human LILRB2 expressed on cells; assay: flow cytometry, Jurkat-LILRB2 cells; remark: listed apart in the source
[14] = target: T3, LILRB2-ECD-HIS (SinoBiological Cat #: …); assay: BLI (Gator), RB2-ECD-his
[15] = target: T4, human LILRB1 expressed on cells; assay: flow cytometry, Jurkat-LILRB1 cells; blocked ligand: APC HLA-G trimer tetramer; remark: listed apart in the source
[16] = target: T3, LILRB2-ECD-HIS (SinoBiological Cat #: …); assay: SPR (Carterra), LILRB2-ECD-his
[17] = target: T5, cynomolgus monkey putative LILRB2 (antigen of the Gator measurement) (cynomolgus monkey); assay: BLI (Gator), cyno RB2-his
T5 construct: also called cynomolgus monkey LILRB2

[18] = target: T6, LILRA1 expressed on cells (human, UniProt O75019 17-489); assay: flow cytometry on CHO-LILRA1 cells (CHO-RA1), titrated antibody, labelled anti-human Fc, gMFI
T6 construct: whole, on cells; GFP-tagged; also called human LILRA1; CHO-LILRA1
T6 sequence (O75019 17-489): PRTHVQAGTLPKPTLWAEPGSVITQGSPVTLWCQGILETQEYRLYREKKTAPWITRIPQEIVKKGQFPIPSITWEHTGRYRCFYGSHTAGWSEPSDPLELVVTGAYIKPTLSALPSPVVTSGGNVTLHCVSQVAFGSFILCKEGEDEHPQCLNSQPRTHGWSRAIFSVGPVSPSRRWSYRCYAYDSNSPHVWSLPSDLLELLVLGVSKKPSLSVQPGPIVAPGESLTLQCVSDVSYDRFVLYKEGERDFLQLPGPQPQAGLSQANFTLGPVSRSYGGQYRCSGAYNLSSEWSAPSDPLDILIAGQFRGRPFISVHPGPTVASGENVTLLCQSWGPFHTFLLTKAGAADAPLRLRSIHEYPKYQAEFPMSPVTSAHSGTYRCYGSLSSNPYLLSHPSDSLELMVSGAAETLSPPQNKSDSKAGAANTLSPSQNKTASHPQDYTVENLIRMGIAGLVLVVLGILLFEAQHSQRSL

[19] = target: T7, cynomolgus (monkey) LILRB2 expressed on CHO cells (cynomolgus monkey); assay: flow cytometry on CHO-cynoLILRB2 cells
T7 construct: whole, on cells; Putative orthologue; also called cynoLILRB2; cynoRB2

[20] = target: T8, LILRA6 expressed on cells (human, UniProt Q6PI73 24-481); assay: flow cytometry on CHO-LILRA6 cells, non-linear fit of the curves of FIG. 26F
T8 construct: whole, on cells; GFP-tagged; also called human LILRA6; CHO-LILRA6
T8 sequence (Q6PI73 24-481): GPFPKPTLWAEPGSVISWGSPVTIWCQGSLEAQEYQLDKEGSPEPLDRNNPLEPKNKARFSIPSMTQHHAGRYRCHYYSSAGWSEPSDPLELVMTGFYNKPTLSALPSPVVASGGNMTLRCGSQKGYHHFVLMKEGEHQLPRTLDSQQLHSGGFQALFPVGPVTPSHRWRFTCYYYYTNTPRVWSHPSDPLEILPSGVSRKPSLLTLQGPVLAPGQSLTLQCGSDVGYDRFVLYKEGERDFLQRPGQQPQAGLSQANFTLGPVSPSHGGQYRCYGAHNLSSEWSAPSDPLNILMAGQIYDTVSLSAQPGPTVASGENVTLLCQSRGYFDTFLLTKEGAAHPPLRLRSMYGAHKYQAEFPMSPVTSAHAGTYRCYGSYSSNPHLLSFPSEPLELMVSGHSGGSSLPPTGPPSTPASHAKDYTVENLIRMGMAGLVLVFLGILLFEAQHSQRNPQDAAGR

[21] = target: T6, LILRA1 expressed on cells; assay: flow cytometry on CHO-LILRA1 cells, non-linear fit of the curves of FIG. 26E
[22] = target: T4, human LILRB1 expressed on cells; assay: flow cytometry on CHO-LILRB1 cells (CHO-RB1), titrated antibody, labelled anti-human Fc, gMFI
[23] = target: T1, human LILRB2 expressed on cells; assay: flow cytometry on CHO-LILRB2 cells (CHO-RB2), titrated antibody, labelled anti-human Fc, gMFI
[24] = target: T1, human LILRB2 expressed on cells; assay: flow cytometry on CHO-LILRB2 cells, non-linear fit of the curves of FIG. 26B
[25] = target: T4, human LILRB1 expressed on cells; assay: flow cytometry on CHO-LILRB1 cells, non-linear fit of the curves of FIG. 26A
[26] = target: T7, cynomolgus (monkey) LILRB2 expressed on …; assay: flow cytometry on CHO-cynoLILRB2 cells, non-linear fit of the curves of FIG. 26D
[27] = target: T9, LILRB3 expressed on cells (human, UniProt O75022 24-631); assay: flow cytometry on CHO-LILRB3 cells (CHO-RB3), titrated antibody, labelled anti-human Fc, gMFI
T9 construct: whole, on cells; Expressed with a GFP tag from the bought plasmid; also called human LILRB3; CHO-LILRB3

[28] = target: T9, LILRB3 expressed on cells; assay: flow cytometry on CHO-LILRB3 cells, non-linear fit of the curves of FIG. 26C
[29] = target: T7, cynomolgus (monkey) LILRB2 expressed on …; assay: flow cytometry on CHO-cynoLILRB2 cells (CHO-cyno RB2), titrated antibody, labelled anti-human Fc, gMFI

T1 sequence (Q8N423 other isoform, or with tags, fused parts or gaps limits assumed): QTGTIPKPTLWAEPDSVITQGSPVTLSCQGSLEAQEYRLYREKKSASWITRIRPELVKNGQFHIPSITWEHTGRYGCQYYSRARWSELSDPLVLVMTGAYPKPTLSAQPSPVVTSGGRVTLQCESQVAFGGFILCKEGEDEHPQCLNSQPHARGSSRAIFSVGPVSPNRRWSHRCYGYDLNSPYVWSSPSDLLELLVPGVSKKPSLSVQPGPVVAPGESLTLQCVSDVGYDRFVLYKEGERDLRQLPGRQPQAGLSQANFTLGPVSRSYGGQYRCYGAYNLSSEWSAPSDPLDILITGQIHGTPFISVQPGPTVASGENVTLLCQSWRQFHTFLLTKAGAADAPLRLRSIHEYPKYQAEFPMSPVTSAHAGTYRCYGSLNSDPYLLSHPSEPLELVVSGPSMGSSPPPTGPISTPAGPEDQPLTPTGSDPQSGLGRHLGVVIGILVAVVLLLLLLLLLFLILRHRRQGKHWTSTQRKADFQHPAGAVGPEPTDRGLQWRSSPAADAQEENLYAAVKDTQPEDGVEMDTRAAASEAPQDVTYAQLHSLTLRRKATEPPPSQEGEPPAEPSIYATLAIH

B1: D2M002-004 (antibody, human IgG1, V domains shown)
VH: EVQLQQSGAELVRPGALVKLSCKASGFNIKDYYMHWVKQRPEQGLEWIGWIDPESGNTIYDPKFQGKASMTADTSSNTAYLQLSSLTSEDTAVYYCARLDGSSYYAMDYWGQGTSVTVSS
VL: DILLTQSPASLAVSLGQRATISCRASESVDSYGNSFMHWYQQKPGQPPKLLIYLASNLESGVPARFSGSGSRTDFTLTIDPVEADDAATYYCQQNNEDPLTFGAGTKLELK
notes: Hit; also called clone #4
- binding result [1]: no binding (tested: 5 µg/mL)
- Kd [2]: 23.6 nM
- Kd [3]: 1000 nM
- EC50 [4]: 0.004 µg/mL
- gMFI (max) [4]: 14300

B2: #45 (antibody, human IgG1, V domains shown)
VH: QIQLLQSGPELKKPGETVKISCKASGYTFTDYSMHWVKQAPGKGLKWMGWINTETGEPTYADDFKGRFAFSLETSASTAYLQINNLKNEDTATYFCARVVRRGYFDVWGAGTTVTVSS
VL: DIQMTQSPASLSASVGETVTITCRASGNIHNYLAWYQQKQGKSPQVLVYNAKTLADGVPSRFSGSGSGTQYSLKINSLQPEDFGSYYCQHFWSTPFTFGSGTKLEIK
notes: also called D2M002-045
- Kd [2]: 94.4 nM
- Kd [3]: 1000 nM
- binding result [5]: no binding (tested: 5 µg/mL)

B3: D2M002-103 (antibody, V domains shown)
VH: QVQLVQSGAEVKKPGASVKVSCKASGYTFTRYVMHWVRQAPGQRLEWMGWINPNNEETKYSQKFKGRVTLTRDTSASTAYMELSSLRSEDTAVYYCARADLEILPYYDHARYAMDYWGQGTLVTVSS
VL: DIQMTQSPSSVSASVGDRVTITCRASENIYSHLAWYQQKPGKAPKLLVYNAKSLQSGVPSRFSGSGSGTDFTLTISSLQPEDFATYYCQHFWSTPPTFGGGTKVEIK
notes: also called P212_F01
- IC50 [6]: 0.009 µg/mL
- IC50 [7]: 0.07 µg/mL
- EC50 (read off the curve) [8]: ~0.06 µg/mL
- Kd [9]: 4.9 nM
- koff [9]: 0.00101 s⁻¹
- kon [9]: 206000 M⁻¹ s⁻¹
- Kd [10]: 1.1 nM
- EC50 (read off the curve) [11]: ~0.1 µg/mL
- EC50 [12]: 0.136 µg/mL
- EC50 [13]: 0.065 µg/mL
- Kd [14]: 0.136 nM
- IC50 (read off the curve) [15]: ~0.07 µg/mL
- Kd [16]: 0.165 nM
- koff [16]: 0.000129 s⁻¹
- kon [16]: 781000 M⁻¹ s⁻¹
- Kd [17]: 1.03 nM

B4: D2M002-103HV1 (antibody, V domains shown)
VH: B3 VH with M48I, W50Y
VL: B3 VL
notes: Humanized and optimized variant of the D2M002-002 lineage
- EC50 (read off the curve) [18]: ~0.2 µg/mL
- EC50 [19]: 0.059 µg/mL
- EC50 [20]: 0.0473 µg/mL
- EC50 [21]: 0.157 µg/mL
- MaxMFI [21]: 20300
- EC50 (read off the curve) [22]: ~0.1 µg/mL
- EC50 (read off the curve) [23]: ~0.06 µg/mL
- EC50 [24]: 0.0599 µg/mL
- MaxMFI [24]: 30000
- EC50 [25]: 0.0941 µg/mL
- MaxMFI [25]: 111000
- EC50 [26]: 0.059 µg/mL
- EC50 (read off the curve) [27]: ~0.1 µg/mL
- EC50 [28]: 0.12 µg/mL
- EC50 (read off the curve) [29]: ~0.06 µg/mL
